Measured values published in patent US20250043302A1, “MUTATED HYDROXYPHENYLPYRUVATE DIOXYGENASE POLYPEPTIDE, AND CODING GENE AND USE THEREOF” (BEIJING DABEINONG BIOTECHNOLOGY CO., LTD., priority 2021, published 2025).

Experiments:
Format in all cases: in vivo
[1] = test system: Arabidopsis thaliana T1 plants; experiment: Isoxaflutole tolerance of transgenic Arabidopsis thaliana T1 plants (spray, bleached leaf area grade, damage score); set-up: Scores (pesticide damage): scale not given here; settings: spray, Arabidopsis thaliana T1 plants; for Classification and statistics of the grade of pesticide damage: Grade 0 (number of plants) / Classification and statistics of the grade of pesticide damage: Grade 1 (number of plants) / Classification and statistics of the grade of pesticide damage: Grade 2 (number of plants) / Classification and statistics of the grade of pesticide damage: Grade 3 (number of plants): 16 plants
Outline: (§1)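 Damage was assessed by bleaching grade (0 none; 1 <50%; 2 >50%; 3 100% of leaf area) one week after spraying. Sprays on 18-day-old T1 and wild-type plants used field-rate multiples: topramezone 25–200, isoxaflutole 35–280, mesotrione 52.5–420 g ai/ha.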

[2] = test system: Arabidopsis thaliana T1 plants; experiment: Topramezone tolerance of transgenic Arabidopsis thaliana T1 plants (spray, bleached leaf area grade, damage score); settings: 7 DAT, Table 4; for Classification and statistics of the grade of pesticide damage: Grade 0 / Classification and statistics of the grade of pesticide damage: Grade 1 / Classification and statistics of the grade of pesticide damage: Grade 2 / Classification and statistics of the grade of pesticide damage: Grade 3: number of plants; for Scores: pesticide damage score 0-100
Outline: as §1

[3] = test system: Arabidopsis thaliana T1 plants; experiment: Mesotrione tolerance of transgenic Arabidopsis thaliana T1 plants (spray, bleached leaf area grade, damage score); set-up: Scores: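 damage score 0-100 computed as Σ(N×S)/(T×M)×100 over grades 0-3 with higher meaning more damage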; settings: Arabidopsis thaliana T1 plants; for Grade 0 (classification and statistics of the grade of pesticide damage; number of plants) / Grade 1 (classification and statistics of the grade of pesticide damage; number of plants) / Grade 2 (classification and statistics of the grade of pesticide damage; number of plants) / Grade 3 (classification and statistics of the grade of pesticide damage; number of plants): 16 plants
Outline: as §1

[4] = isoxaflutole 35 g ai/ha (0.5x field concentration)
[5] = isoxaflutole 70 g ai/ha (1x field concentration)

B1: GmHPPDm-F383W-02: nucleotide sequence encoding Glycine max HPPD with F383W; vector DBN11748 (nucleic acid)
DNA: ATGCCAATGTACACACCATCGCTCTCCGCCCCTTCTTCCAACCATATTCAGCCATCCGTGACTCTGCCTCTCTACATCACAACCACCAAGTTGAACCTGAAGCAGCAGCACCATACGACTCCTATGCCTATACCCATGTGCAATGAGATCCAAGCACAGGCTCAGGCACAAGCTCAACCCGGATTCAAACTCGTGGGATTCAAGAACTTCGTCCGTACCAATCCAAAATCTGACCGCTTCCAGGTGAACAGATTCCACCACATAGAGTTTTGGTGTACTGATGCAACGAATGCTTCGAGGAGGTTTTCATGGGGCTTAGGCATGCCGATTGTAGCAAAGTCAGACCTTTCTACAGGGAACCAAATTCATGCAAGCTATCTGCTCCGCTCAGGTGATTTGTCTTTCTTGTTCTCAGCTCCATATTCTCCATCATTATCTGCTGGGTCATCAGCAGCATCTAGTGCGTCGATCCCTAGCTTTGATGCCGCCACCTGCCTCGCCTTCGCCGCCAAACATGGATTTGGTGTTCGCGCCATTGCTCTTGAGGTTGCCGATGCCGAGGCTGCTTTTAGCGCCTCCGTCGCCAAGGGAGCTGAGCCTGCGTCACCTCCTGTTCTTGTTGATGATCGAACTGGTTTTGCTGAAGTGCGTCTTTACGGCGACGTGGTGCTCAGATATGTTAGTTACAAGGATGCTGCTCCTCAAGCGCCGCACGCTGATCCTTCAAGATGGTTTCTTCCGGGGTTTGAGGCCGCTGCTAGTTCATCTTCCTTCCCGGAGTTGGATTACGGCATACGGCGGCTTGACCATGCTGTCGGCAATGTTCCTGAGCTTGCTCCGGCGGTACGGTACTTGAAAGGTTTCTCCGGGTTCCATGAATTTGCAGAGTTCACGGCGGAAGATGTTGGAACAAGTGAAAGCGGATTGAATTCTGTTGTTTTGGCCAACAACAGTGAAACTGTTCTGCTCCCCCTCAATGAACCAGTTTATGGCACAAAGCGCAAGAGCCAGATTGAAACATATCTCGAGCACAATGAAGGCGCCGGCGTCCAGCATCTTGCTTTGGTGACTCATGATATCTTCACAACACTTAGGGAGATGAGGAAGAGGAGTTTCCTCGGCGGGTTTGAATTCATGCCCAGTCCCCCGCCGACCTACTATGCAAATCTGCACAACAGGGCTGCAGATGTGCTGACTGTAGACCAGATCAAGCAATGTGAAGAACTTGGAATTTTAGTGGATAGAGACGACCAAGGTACACTACTTCAAATATTCACCAAACCAGTCGGTGACAGACCAACAATTTGGATCGAGATTATACAAAGAATTGGATGCATGGTCGAGGATGAAGAAGGGAAGGTGTACCAGAAGGGAGCATGTGGTGGTTTTGGGAAAGGAAATTTTTCTGAGCTGTTTAAATCCATCGAGGAATATGAGAAAACCTTAGAAGCTAAAAGAACTGCATGA
modifications: GmHPPDm-F383W-02 Nucleotide Sequence
notes: vector DBN11748
[1]; [4]
  Resistance evaluation: Non-resistant
  Scores (pesticide damage): 81
  Classification and statistics of the grade of pesticide damage: Grade 0 (number of plants): 0
  Classification and statistics of the grade of pesticide damage: Grade 1 (number of plants): 0
  Classification and statistics of the grade of pesticide damage: Grade 2 (number of plants): 9
  Classification and statistics of the grade of pesticide damage: Grade 3 (number of plants): 7
[1]; [5]
  Resistance evaluation: Non-resistant
  Scores (pesticide damage): 100
  Classification and statistics of the grade of pesticide damage: Grade 0 (number of plants): 0
  Classification and statistics of the grade of pesticide damage: Grade 1 (number of plants): 0
  Classification and statistics of the grade of pesticide damage: Grade 2 (number of plants): 0
  Classification and statistics of the grade of pesticide damage: Grade 3 (number of plants): 16
[2]; topramezone 25 g ai/ha (1×)
  Classification and statistics of the grade of pesticide damage: Grade 0: 0
  Classification and statistics of the grade of pesticide damage: Grade 1: 3
  Classification and statistics of the grade of pesticide damage: Grade 2: 9
  Classification and statistics of the grade of pesticide damage: Grade 3: 4
  Scores: 69
  Resistance evaluation: non-resistant (non-resistant plants (scores 68-100))
[2]; topramezone 100 g ai/ha (4×)
  Classification and statistics of the grade of pesticide damage: Grade 0: 0
  Classification and statistics of the grade of pesticide damage: Grade 1: 0
  Classification and statistics of the grade of pesticide damage: Grade 2: 0
  Classification and statistics of the grade of pesticide damage: Grade 3: 16
  Scores: 100
  Resistance evaluation: non-resistant (non-resistant plants (scores 68-100))
[3]; mesotrione 52.5 g ai/ha
  Resistance evaluation: Non-resistant
  Scores: 100
  Grade 0 (classification and statistics of the grade of pesticide damage; number of plants): 0
  Grade 1 (classification and statistics of the grade of pesticide damage; number of plants): 0
  Grade 2 (classification and statistics of the grade of pesticide damage; number of plants): 0
  Grade 3 (classification and statistics of the grade of pesticide damage; number of plants): 16
[3]; mesotrione 105 g ai/ha
  Resistance evaluation: Non-resistant
  Scores: 100
  Grade 0 (classification and statistics of the grade of pesticide damage; number of plants): 0
  Grade 1 (classification and statistics of the grade of pesticide damage; number of plants): 0
  Grade 2 (classification and statistics of the grade of pesticide damage; number of plants): 0
  Grade 3 (classification and statistics of the grade of pesticide damage; number of plants): 16
